Measured values as given in US20140093540A1 (published 2014).

What was measured:
[1] = target: human BSG on erythrocytes (human) (UniProt P35613); assay: cell-based or functional assay
[2] = target: BSG-SCd4d3+4bio (human; rat) (UniProt P35613); assay: SPR (BIAcore T100, 37° C.), kinetic analysis at 100 µl/min, global 1:1 fit
[3] = target: BSG-L bait (biotinylated ectodomain of the long, three domain isoform of BASIGIN) (human; rat) (UniProt P35613); assay: SPR (BIAcore T100, 37° C.), Rh5 injected over the immobilised three domain isoform of BSG
[4] = target: BSG-SCd4d3+4bio (human; rat) (UniProt P35613); assay: SPR (BIAcore T100, 37° C.), Rh5 injected over BSG-S captured on streptavidin, equilibrium, non-linear curve fit
[5] = target: P. falciparum invasion ligand Rh5 (of the parasites in the invasion assays) (Plasmodium falciparum); assay: cell-based or functional assay
[6] = target: T1, biotinylated CD4 domains 3+4 alone (negative control) (rat, UniProt P05540 207-394, enzymatically biotinylated on the C-terminal biotinylation sequence); assay: flow cytometry, protein-coated fluorescent microbeads on human erythrocytes
T1 construct: domain: domains 3 and 4; Immobilised on streptavidin-coated Nile Red fluorescent microbeads in the assay; also called Cd4d3+4; CD4-coated microbeads
T1 sequence: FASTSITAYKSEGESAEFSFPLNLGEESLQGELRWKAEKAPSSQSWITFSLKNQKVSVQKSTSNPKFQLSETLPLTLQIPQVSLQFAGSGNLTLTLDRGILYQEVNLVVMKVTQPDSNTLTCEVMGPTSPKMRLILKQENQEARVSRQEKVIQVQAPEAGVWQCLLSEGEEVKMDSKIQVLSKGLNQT

Sequence of human BSG on erythrocytes (human) (P35613 22-385): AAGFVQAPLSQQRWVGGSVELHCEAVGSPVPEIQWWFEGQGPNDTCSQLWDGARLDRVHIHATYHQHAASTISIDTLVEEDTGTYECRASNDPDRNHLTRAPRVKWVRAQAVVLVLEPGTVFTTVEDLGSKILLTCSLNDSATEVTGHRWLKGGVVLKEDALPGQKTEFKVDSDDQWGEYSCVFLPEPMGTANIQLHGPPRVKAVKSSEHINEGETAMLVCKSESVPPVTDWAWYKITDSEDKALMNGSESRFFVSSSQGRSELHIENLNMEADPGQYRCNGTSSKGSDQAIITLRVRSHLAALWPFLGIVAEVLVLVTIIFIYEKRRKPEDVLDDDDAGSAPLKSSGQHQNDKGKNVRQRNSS

MEM-M6/6 (antibody)
concentration that prevented all detectable invasion, 3D7 strain, microscopy [1]: > 10 µg/mL

PfRh5Cd4d3+4-6H (from UniProt P05540 207-394) (ligand)
interaction half-life [2]: 2.9 s | koff [2]: 0.24 s⁻¹ | kon [2]: 225000 M⁻¹ s⁻¹ | Kd [3]: 710 nM | koff [3]: 0.144 s⁻¹ | Kd [4]: 1140 nM

BSG-S-Cd4d3+4-COMP-His (from UniProt P35613 138-325; P05540 207-394; P35444 28-72) (receptor)
inhibition of erythrocyte invasion, Dd2 P. falciparum strain, IC50 [5]: 1000 nM

B1: GLYCOPHORIN A (GYPA) on human erythrocytes (receptor)
chain: LSTTEVAMHTSTSSSVTKSYISSQTNDTHKRDTYAATPRAHEVSEISVRTVYPPEEETGERVQLAHHFSEPEITLIIFGVMAGVIGTILLISYGIRRLIKKSPSDVKPLPSPDTDVPLSSVEIENPETSDQ
modifications: sialylated (binding was lost after neuraminidase treatment of the cells)
notes: whole, on cells; also called native GYPA
binding result [6]: no binding
